Laboratory results from paper PMC7717530, “EphA7 isoforms differentially regulate cortical dendrite development” (PLoS ONE, 2020).

Biological target: EphA7 full-length isoform with hemagglutinin tag (EphA7-FL-HA) (UniProt Q61772-1 28-998)
Assay: cell-based or functional assay

EphA7 full-length isoform with hemagglutinin tag (EphA7-FL-HA), sequence (Q61772 28-998): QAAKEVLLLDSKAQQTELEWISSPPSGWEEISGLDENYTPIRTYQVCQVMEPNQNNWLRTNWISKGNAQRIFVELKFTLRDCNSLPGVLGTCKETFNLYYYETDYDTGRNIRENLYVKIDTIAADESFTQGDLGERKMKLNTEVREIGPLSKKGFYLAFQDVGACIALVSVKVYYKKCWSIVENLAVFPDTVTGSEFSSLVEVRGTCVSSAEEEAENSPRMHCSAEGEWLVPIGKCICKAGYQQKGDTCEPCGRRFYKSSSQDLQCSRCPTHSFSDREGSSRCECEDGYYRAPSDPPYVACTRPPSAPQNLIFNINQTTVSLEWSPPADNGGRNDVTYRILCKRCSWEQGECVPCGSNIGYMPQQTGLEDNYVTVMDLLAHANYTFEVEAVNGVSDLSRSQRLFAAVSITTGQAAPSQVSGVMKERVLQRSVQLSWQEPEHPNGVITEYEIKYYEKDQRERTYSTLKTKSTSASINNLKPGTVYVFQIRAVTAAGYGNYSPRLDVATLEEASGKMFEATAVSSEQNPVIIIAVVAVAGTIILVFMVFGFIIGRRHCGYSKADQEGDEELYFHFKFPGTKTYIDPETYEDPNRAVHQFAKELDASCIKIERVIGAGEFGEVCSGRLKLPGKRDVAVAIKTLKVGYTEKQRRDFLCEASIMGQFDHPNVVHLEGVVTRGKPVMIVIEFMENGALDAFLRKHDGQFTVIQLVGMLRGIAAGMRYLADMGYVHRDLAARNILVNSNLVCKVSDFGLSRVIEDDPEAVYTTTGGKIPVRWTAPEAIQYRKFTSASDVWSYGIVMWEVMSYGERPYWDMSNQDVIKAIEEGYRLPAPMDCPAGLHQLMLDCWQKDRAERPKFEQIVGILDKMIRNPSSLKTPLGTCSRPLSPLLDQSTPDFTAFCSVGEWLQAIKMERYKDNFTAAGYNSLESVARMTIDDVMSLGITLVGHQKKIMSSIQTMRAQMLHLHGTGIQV

EphA7-FL tyrosine phosphorylation (phospho-tyrosine over total HA after HA IP) in HEK cells stimulated with clustered ephrin-A5-hFC, at EphA7-T1:FL ratios 1:1 (65%) and 5:1 (42%) compared to 0.2:1: 65 % of EphA7-FL tyrosine phosphorylation compared to a ratio of 0.2:1
B1: EphA7 truncated isoform with myc tag (EphA7-T1-myc) (receptor)
chain: not shown
